Laboratory results taken from patent publication US20130189255A1 (GlaxoSmithKline, published 2013).

B1: Rat serum albumin (other, UniProt P02770 25-608, looked up)
chain: EAHKSEIAHRFKDLGEQHFKGLVLIAFSQYLQKCPYEEHIKLVQEVTDFAKTCVADENAENCDKSIHTLFGDKLCAIPKLRDNYGELADCCAKQEPERNECFLQHKDDNPNLPPFQRPEAEAMCTSFQENPTSFLGHYLHEVARRHPYFYAPELLYYAEKYNEVLTQCCTESDKAACLTPKLDAVKEKALVAAVRQRMKCSSMQRFGERAFKAWAVARMSQRFPNAEFAEITKLATDVTKINKECCHGDLLECADDRAELAKYMCENQATISSKLQACCDKPVLQKSQCLAEIEHDNIPADLPSIAADFVEDKEVCKNYAEAKDVFLGTFLYEYSRRHPDYSVSLLLRLAKKYEATLEKCCAEGDPPACYGTVLAEFQPLVEEPKNLVKTNCELYEKLGEYGFQNAVLVRYTQKAPQVSTPTLVEAARNLGRVGTKCCTLPEAQRLPCVEDYLSAILNRLCVLHEKTPVSEKVTKCCSGSLVERRPCFSALTVDETYVPKEFKAETFTFHSDICTLPDKEKQIKKQTALAELVKHKPKATEDQLKTVMGDFAQFVDKCCKAADKDNCFATEGPNLVARSKEALA
notes: also called RSA

Assays:
Mouse serum albumin = molecular target: T1, Mouse serum albumin (mouse, UniProt P07724 25-608); experiment: SPR (Biacore), albumin immobilised on CM5 chip, fusion in solution
T1 construct: also called MSA
Description: (§1) The analysis was performed using a CMS Biacore chip (carboxymethylated dextran matrix) that was coated with serum albumin. About 1000 resonance units (RUs) of each serum albumin to be tested (human, rat and mouse serum albumin) was immobilised in acetate buffer pH 5.5. […] Affinity (KD) was calculated from the BIACORE traces by fitting on-rate and off-rate curves to traces generated by concentrations of dAb in the region of the KD.

Rat serum albumin = molecular target: B1; experiment: as above
Description: as §1

Human serum albumin = molecular target: T2, Human serum albumin (human, UniProt P02768 25-609); experiment: as above
T2 construct: also called HSA
Description: as §1

[1] = molecular target: T3, Exendin 4 (G4S linker)3 DOM7h-14 dAb fusion (DAT0115); experiment: SPR (Biacore), biotinylated albumin on streptavidin chip, fusion in solution
T3 construct: also called Exendin 4 (G4S)3 DOM7h-14 fusion
Description: The analysis was performed using a streptavidin chip (SA) coated with biotinylated serum albumin. 200-1000 resonance units (RUs) of each serum albumin was immobilised on the chip. Flow cell 1 was uncoated, flow cell 2 was coated with HSA, flow cell 3 was coated with RSA and flow cell 4 was coated with CSA.
Affinity (KD) was calculated from the BIACORE traces by fitting on-rate and off-rate curves to traces generated by concentrations of dAb in the region of the KD.

T1 sequence (P07724 25-608 limits assumed): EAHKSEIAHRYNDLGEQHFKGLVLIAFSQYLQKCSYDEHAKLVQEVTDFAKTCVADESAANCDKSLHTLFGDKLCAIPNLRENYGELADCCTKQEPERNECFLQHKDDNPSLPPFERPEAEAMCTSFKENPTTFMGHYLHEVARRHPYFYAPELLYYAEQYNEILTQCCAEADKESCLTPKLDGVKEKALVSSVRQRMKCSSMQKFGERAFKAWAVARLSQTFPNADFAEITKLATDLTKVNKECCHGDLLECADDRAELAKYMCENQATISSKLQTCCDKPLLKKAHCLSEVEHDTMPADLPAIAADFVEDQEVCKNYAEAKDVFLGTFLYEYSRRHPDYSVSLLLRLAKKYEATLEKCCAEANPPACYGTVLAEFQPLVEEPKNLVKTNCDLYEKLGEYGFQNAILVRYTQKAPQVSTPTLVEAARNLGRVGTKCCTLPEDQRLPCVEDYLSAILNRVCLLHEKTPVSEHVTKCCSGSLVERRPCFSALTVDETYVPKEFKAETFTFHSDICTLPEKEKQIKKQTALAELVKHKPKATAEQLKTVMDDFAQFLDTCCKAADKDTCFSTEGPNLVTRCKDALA

Binder | Kd (Mouse serum albumin) | Kd (Rat serum albumin) | Kd (Human serum albumin) | Kd [1]
2xGLP-1 (7-37) A8G DOM7h-14 dAb fusion (DAT0114) (other, also called 2xGLP-1 (7-37) A8G DOM7h-14 fusion; 2xGLP-1 A8G DOM7h-14 fusion) HGEGTFTSDVSSYLEGQAAKEFIAWLVKGRHGEGTFTSDVSSYLEGQAAKEFIAWLVKGRDIQMTQSPSSLSASVGDRVTITCRASQWIGSQLSWYQQKPGKAPKLLIMWRSSLQSGVPSRFSGSGSGTDFTLTISSLQPEDFATYYCAQGAALPRTFGQGTKVEIKA | 130 nM | 700 nM | 150 nM | –
GLP-1 (7-37) A8G, helical linker, DOM7h-14 dAb fusion (DAT0120) (other, also called GLP-1 A8G, helical linker, DOM7h-14 fusion; GLP-1 (7-37) A8G, helical linker, DOM7h-14 fusion) HGEGTFTSDVSSYLEGQAAKEFIAWLVKGRGKEAAAKEAAAKEAAAKELAAKEAAAKEAAAKEAAAKELAADIQMTQSPSSLSASVGDRVTITCRASQWIGSQLSWYQQKPGKAPKLLIMWRSSLQSGVPSRFSGSGSGTDFTLTISSLQPEDFATYYCAQGAALPRTFGQGTKVEIKR | 110 nM | 800 nM | 110 nM | –
B1 | – | – | – | 2000 nM
